In patent US6303749A, “Agouti and agouti-related peptide analogs” (Amgen Inc., priority 1999, dated 2001):
“And” between values parts separate entries of the source, which are not always exact repeats. Identical values can stand only once. Bridge positions count the residues as written; N and C are the ends. Square brackets hold non-standard residues; d marks the D form. Ends that are not written are not given here. Nle = CCCC[C@H](N)C(=O)O; Abu = CC[C@H](N)C(=O)O

B1: peptide of SEQ ID NO:14 (peptide)
peptide: RNSCKPPAPA[Abu][Abu]DP[Abu]ASCQCRFFRSACS[Abu]RVL
modifications: disulfide (positions not given here); also: oxidised to disulfides, pairs not given here
B2: peptide of SEQ ID NO:13 (peptide)
peptide: RNSCKPPAPAC[Abu]DP[Abu]ASCQCRFFRSACSCRVL
modifications: disulfide (positions not given here); not fully specified (bridges); printed as Arg-Asn-Ser-Cys-Lys-Pro-Pro-Ala-Pro-Ala-Cys-Abu-Asp-Pro-Abu-Ala-Ser-Cys-Gln-Cys-Arg-Phe-Phe-Arg-Ser-Ala-Cys-Ser-Cys-Arg-Val-Leu; also: three disulfides, pairing not given here
B3: peptide of SEQ ID NO:17 (peptide)
peptide: [Abu][Abu]DPCAS[Abu]QCRFFRSACS[Abu]RVLSLNC
modifications: disulfide (positions not given here); also: oxidised to disulfides, pairs not given here
B4: peptide of SEQ ID NO:9 (peptide)
peptide: [Abu][Abu]DPCAT[Abu]YCRFFNAFCY[Abu]RKLGTAMNPCSRT
modifications: disulfide (positions not given here); not fully specified (bridges); also: disulfide pairing not given here
B5: peptide of SEQ ID NO:11 (peptide)
peptide: C[Abu]DPCAT[Abu]Y[Abu]RFFNAF[Abu]YCRKLGTAMNPCSRT
modifications: disulfide (positions not given here); also: oxidised to disulfides, pairs not given here
B6: peptide of SEQ ID NO:18 (peptide)
peptide: C[Abu]DPCAS[Abu]Q[Abu]RFFRSA[Abu]SCRVLSLNC
modifications: disulfide (positions not given here); also: oxidised to disulfides, pairs not given here
B7: Mkd5-AGRP (ligand)
chain: APMEGIRRPDQALLPELPGLGLRAPLKKTTAEQAEEDLLQEAQALAEVLDLQDREPRSSRRCVRLHESCLGQQVPCCDPCATCYCRFFNAFCYCRKLGTAMNPCSRT

Assays:
[1] = biological target: T1, human melanocortin-3 (MC-3) receptors (Homo sapiens, UniProt P41968); test: Melanocortin receptor binding assay, 125I-AGRP competition, MC-3; settings: Table II; HEK 293 cell membranes; 125I-AGRP 1.10 nM; read-out: hMC3 IC50 (nM) 125I-AGRP
T1 construct: expressed in transfected cells; membrane fraction used

[2] = type: binding, human; settings: Table II; HEK 293 cell membranes; 125I-AGRP 1.10 nM; read-out: hMC3 IC50 (nM) 125I-AGRP
[3] = biological target: T2, human melanocortin-4 (MC-4) receptors (Homo sapiens, UniProt P32245); type: binding; settings: HEK 293 cell membranes; about […] 125I-NDP-α-MSH; 180 minutes at 25 C; read-out: hMC4 IC50 (nM) 125I NDP-MSH
T2 construct: expressed in transfected cells; membrane fraction used

[4] = biological target: T1, human melanocortin-3 (MC-3) receptors; test: Melanocortin receptor binding assay, 125I-NDP-alpha-MSH competition, MC-3; settings: HEK 293 cell membranes; about […] 125I-NDP-α-MSH; 180 minutes at 25 C; read-out: hMC3 IC50 (nM) 125I NDP-MSH
[5] = biological target: T3, human melanocortin-4 (MC-4) receptor (human, UniProt P32245); test: displacement of 125I-NDP-alpha-MSH, membranes of HEK 293 cells with hMC4 (value column 1)
[6] = biological target: T4, human melanocortin-3 (MC-3) receptor (human, UniProt P41968); test: displacement of 125I-NDP-alpha-MSH, membranes of HEK 293 cells with hMC3 (value column 3)
[7] = biological target: T4, human melanocortin-3 (MC-3) receptor; test: displacement of 125I-AGRP, membranes of HEK 293 cells with hMC3 (value column 4)
[8] = biological target: T3, human melanocortin-4 (MC-4) receptor; test: displacement of 125I-AGRP, membranes of HEK 293 cells with hMC4 (value column 2; its head prints hMC3)

T2 sequence (P32245 whole entry): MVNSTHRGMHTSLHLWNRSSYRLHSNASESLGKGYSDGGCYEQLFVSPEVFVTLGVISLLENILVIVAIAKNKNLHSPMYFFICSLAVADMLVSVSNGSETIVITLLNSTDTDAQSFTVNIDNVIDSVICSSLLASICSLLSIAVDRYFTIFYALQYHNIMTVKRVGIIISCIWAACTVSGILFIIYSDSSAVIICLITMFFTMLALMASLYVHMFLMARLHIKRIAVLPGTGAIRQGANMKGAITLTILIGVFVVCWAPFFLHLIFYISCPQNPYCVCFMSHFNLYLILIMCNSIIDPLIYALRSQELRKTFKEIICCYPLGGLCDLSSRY
T1 sequence (P41968 whole entry): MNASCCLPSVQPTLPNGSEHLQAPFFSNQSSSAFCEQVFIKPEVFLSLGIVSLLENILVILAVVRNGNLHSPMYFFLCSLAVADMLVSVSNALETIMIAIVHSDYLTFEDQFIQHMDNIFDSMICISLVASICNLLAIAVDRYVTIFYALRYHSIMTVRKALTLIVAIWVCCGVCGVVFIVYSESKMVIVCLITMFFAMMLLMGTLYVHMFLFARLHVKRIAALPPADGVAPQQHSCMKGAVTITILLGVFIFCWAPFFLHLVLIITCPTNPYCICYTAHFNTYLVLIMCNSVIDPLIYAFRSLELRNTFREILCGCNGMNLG
T3 sequence (P32245 whole entry): as the sequence (P32245 whole entry) above

Row | Molecule | IC50 [1] [nM] | IC50 [2] [nM] | IC50 [3] [nM] | IC50 [4] [nM] | IC50 [5] [nM] | IC50 [6] | IC50 [7] [nM] | IC50 [8] [nM]
1 | [Abu][Abu]DPCAT[Abu]YCRFFNAFCY[Abu]RKLGTAMNPCSRT (cysteine pairing not given here) [SEQ ID NO:9] | 700 | 73 | 600 | > 1000 |  |  |  | 
2 | HESCLGQQVPC[Abu]DP[Abu]ATCY[Abu]RFFNAF[Abu]YCRKL (cysteine pairing not given here) [SEQ ID NO:5] | > 1000 | 377 | > 1000 | > 1000 |  |  |  | 
3 | HESCLGQQVPC[Abu]DP[Abu]ATCYCRFFNAFCYCRKL (cysteine pairing not given here) [SEQ ID NO:2] | 850 |  | 200 | > 1000 |  |  |  | 
4 | AC[Abu]DP[Abu]AS[Abu]QCRFFRSACSCRVL (cysteine pairing not given here) [SEQ ID NO:16] | > 1000 | 280 | > 1000 | > 1000 |  |  |  | 
5 | C[Abu]DPCAT[Abu]Y[Abu]RFFNAF[Abu]YCRKLGTAMNPCSRT (cysteine pairing not given here) [SEQ ID NO:11] | > 1000 | 800 | > 1000 | > 1000 |  |  |  | 
6 | [Abu][Abu]DPCAS[Abu]QCRFFRSACS[Abu]RVLSLNC (cysteine pairing not given here) [SEQ ID NO:17] | > 1000 | > 1000 | > 1000 | > 1000 |  |  |  | 
7 | RNSCKPPAPA[Abu][Abu]DP[Abu]ASCQCRFFRSACS[Abu]RVL (cysteine pairing not given here) [SEQ ID NO:14] | > 1000 | 900 | > 1000 | > 1000 |  |  |  | 
8 | C[Abu]DPCAT[Abu]YCRFFNAFCYCRKLGTAMNPCSRT (cysteine pairing not given here) [SEQ ID NO:8] | 400 |  |  |  |  |  |  | 
9 | RNSCKPPAPAC[Abu]DP[Abu]ASCQCRFFRSACSCRVL (cysteine pairing not given here) [SEQ ID NO:13] | > 1000 | 60 | 1000 | > 1000 |  |  |  | 
10 | HESCLGQQVP[Abu][Abu]DP[Abu]ATCYCRFFNAFCY[Abu]RKL (cysteine pairing not given here) [SEQ ID NO:3] | > 1000 | 160 | 900 | > 1000 |  |  |  | 
11 | C[Abu]DPCAS[Abu]Q[Abu]RFFRSA[Abu]SCRVLSLNC (cysteine pairing not given here) [SEQ ID NO:18] | > 1000 | > 1000 | > 1000 | > 1000 |  |  |  | 
12 | Cys-Abu-Asp-Pro-Abu-Ala-Thr-Abu-Tyr-Cys-Arg-Phe-Phe-Asn-Ala-Phe-Cys-Tyr-Cys-Arg-Lys-Leu-Gly-Thr-Ala-Met-Asn-Pro-Abu-Ser-Arg-Thr [SEQ ID NO:10] | 147 | 15 | 102 | 500 |  |  |  | 
13 | RNS[Abu]KPPAPAC[Abu]DP[Abu]AS[Abu]QCRFFRSACSCRVL (cysteine pairing not given here) [SEQ ID NO:15] | > 1000 | 45 | 800 | > 1000 |  |  |  | 
14 | His-Glu-Ser-Abu-Leu-Gly-Gln-Gln-Val-Pro-Cys-Abu-Asp-Pro-Abu-Ala-Thr-Abu-Tyr-Cys-Arg-Phe-Phe-Asn-Ala-Phe-Cys-Tyr-Cys-Arg-Lys-Leu [SEQ ID NO:4] | 90 |  | 100 | 850 |  |  |  | 
15 | AC[Abu]DP[Abu]AS[Abu]QCRFFRSACSCRVL (disulfide (positions not given here)) [peptide of SEQ ID NO:16] |  |  |  |  | > 1000 | > 1000 nM | > 1000 | 280
16 | HESCLGQQVPC[Abu]DP[Abu]ATCY[Abu]RFFNAF[Abu]YCRKL (disulfide (positions not given here)) [peptide of SEQ ID NO:5] |  |  |  |  | > 1000 | > 1000 nM | > 1000 | 377

Row | Molecule | IC50 [1] [nM] | IC50 [2] [nM] | IC50 [3] [nM] | IC50 [4] [nM] | IC50 [5] [nM] | IC50 [6] | IC50 [7] [nM] | IC50 [8] [nM]
17 | CRFFNAFC (disulfide 1-8 (inferred)) [peptide of SEQ ID NO:6] |  |  |  |  | > 1000 | > 1000 nM | > 1000 | 
18 | HESCLGQQVPC[Abu]DP[Abu]ATCYCRFFNAFCYCRKL (disulfide (positions not given here)) [peptide of SEQ ID NO:2] |  |  |  |  | 200 | > 1000 nM | 850 | 50
19 | CRFFGSAC (disulfide 1-8 (inferred)) [peptide of SEQ ID NO:7] |  |  |  |  | > 1000 | > 1000 nM | > 1000 | 
20 | B1 |  |  |  |  | > 1000 | > 1000 nM | > 1000 | 900
21 | B2 |  |  |  |  | 1000 | > 1000 nM | > 1000 | 60
22 | B3 |  |  |  |  | > 1000 | > 1000 nM | > 1000 | > 1000
23 | MRCVRLHESCLGQQVPCCDPCATCYCRFFNAFCYCRKLGTAMNPCSRT [Md65-AGRP] |  |  |  |  |  | 2 nM |  | 
24 | HESCLGQQVP[Abu][Abu]DP[Abu]ATCYCRFFNAFCY[Abu]RKL (disulfide (positions not given here)) [peptide of SEQ ID NO:3] |  |  |  |  | 900 | > 1000 nM | > 1000 | 160
25 | HES[Abu]LGQQVPC[Abu]DP[Abu]AT[Abu]YCRFFNAFCYCRKL (disulfide (positions not given here)) [peptide of SEQ ID NO:4] |  |  |  |  | 100 | 850 nM | 90 | 
26 | B4 |  |  |  |  | 600 | > 1000 nM | 700 | 73
27 | B5 |  |  |  |  | > 1000 | > 1000 nM | > 1000 | 800
28 | Ac-[Nle]H[dF]RWK [NDP-alpha-MSH] |  |  |  |  | 8 | 0.9 nM and 0.7 nM |  | 
29 | RNS[Abu]KPPAPAC[Abu]DP[Abu]AS[Abu]QCRFFRSACSCRVL (disulfide (positions not given here)) [peptide of SEQ ID NO:15] |  |  |  |  | 800 | > 1000 nM | > 1000 | 45
30 | B6 |  |  |  |  | > 1000 | > 1000 nM | > 1000 | > 1000
31 | B7 |  |  |  |  |  | 20 nM and 10 nM | 0.7 | 
